The chains are these.
B1: F-BAR and double SH3 domains protein 1, residues 467 to 528; numbered along this chain, Q86WN1 (parent)
chain: RALPCPAHVVFRYQAGREDELTITEGEWLEVIEEGDADEWVKARNQHGEVGFVPERYLNFPD

± gives the uncertainty stated by the source.

The text below walks through data of the Human Domainome abundance scans (Beltran et al. 2025).

Variants of B1 are the subject of the data set. The data set is described as follows: abundance fitness (aPCA) (normalised: wild type 0, dead -1); higher = more abundant; growth selection in yeast, the domain comes from the species named. As to conditions: Homo sapiens.
V50C: the abundance fitness is -0.191 ± 0.17.
V50Q: the abundance fitness is -0.093 ± 0.061.
Take C5A: the abundance fitness is -0.479 ± 0.24.
For C5L, the abundance fitness was -0.538 ± 0.067.
As to E33D, the abundance fitness is -0.156 ± 0.16.
Regarding E33H, the abundance fitness is -0.193 ± 0.077.
Take E33Y: the abundance fitness was -0.56 ± 0.12.
E33M: the abundance fitness is -0.266 ± 0.13.
Take E33Q: the abundance fitness worked out at 0.051 ± 0.11.
For E33K, the abundance fitness is -0.344 ± 0.15.
Regarding E33F, the abundance fitness was -0.725 ± 0.12.
The result for H8L reads -0.202 ± 0.044; that for H8G, -0.651 ± 0.088; that for H8S, -0.479 ± 0.07.
The result for H8N reads -0.392 ± 0.11.
The figure for H8M is -0.245 ± 0.084; for I23K it is -0.718 ± 0.097.
I23N: the abundance fitness is -1.18 ± 0.36.
As to I23M, the abundance fitness is -0.269 ± 0.045.
The result for I23R reads -0.751 ± 0.069; that for I23A, -0.705 ± 0.085.
In the case of Q46C, the abundance fitness is -0.018 ± 0.099.
The figure for Q46W is -0.228 ± 0.093; for Q46V it is -0.088 ± 0.044.
The result for Q46K reads 0.074 ± 0.062; that for Q46Y, -0.114 ± 0.092; that for Q46T, -0.01 ± 0.062.
As to Q46S, the abundance fitness is -0.04 ± 0.061.
On to Q46H, for which the abundance fitness is -0.163 ± 0.15.
Take E27L: the abundance fitness was -0.961 ± 0.12.
For the variant E27S, the abundance fitness is -1.01 ± 0.14.
The figure for E27Q is -0.285 ± 0.088.
The result for R17P reads -0.797 ± 0.27.
Take R17V: the abundance fitness was -0.253 ± 0.06.
R17L: the abundance fitness was -0.375 ± 0.053.
The result for E25L reads -0.298 ± 0.069.
The result for E25H reads -0.176 ± 0.17; that for E25Y, 0.189 ± 0.26.
For the variant E34V, the abundance fitness was -0.004 ± 0.062.
The result for E34M reads -0.085 ± 0.063.
Turning to E34Y, the abundance fitness was -0.053 ± 0.14.
The figure for E34P is -0.112 ± 0.072.
The result for E34S reads -0.101 ± 0.053; that for A15V, -0.585 ± 0.093.
In the case of A15C, the abundance fitness is -0.536 ± 0.097.
The figure for A15H is -0.891 ± 0.33; for E30Y it is -0.238 ± 0.099; for E30W it is -0.185 ± 0.07.
The figure for E30I is -0.353 ± 0.14.
The figure for E30L is -0.277 ± 0.055.
With E30H, the abundance fitness is -0.218 ± 0.14.
The figure for E30V is -0.202 ± 0.045.
With E30T, the abundance fitness is -0.055 ± 0.065.
For E20G, the abundance fitness is -0.179 ± 0.062.
Consider E20S, for which the abundance fitness was -0.385 ± 0.061.
As to E20D, the abundance fitness is -0.306 ± 0.11.
The result for E20M reads -0.475 ± 0.083.
For the variant P61W, the abundance fitness was -0.174 ± 0.058.
Take P61I: the abundance fitness came out at 0.091 ± 0.12.
The result for P61Q reads 0.081 ± 0.088; that for P61N, -0.042 ± 0.096; that for P61R, -0.09 ± 0.039.
The result for H47E reads -0.171 ± 0.078; that for H47P, -0.585 ± 0.11; that for H47C, -0.045 ± 0.13.
The figure for H47K is 0.048 ± 0.07; for E18S it is -0.127 ± 0.048; for E18C it is -0.076 ± 0.086.
Consider E18F, for which the abundance fitness was -0.28 ± 0.12.
The result for E18Y reads -0.233 ± 0.079; that for E18Q, 0.01 ± 0.079.
The result for E18D reads 0.082 ± 0.1; that for E18N, -0.086 ± 0.091.
The result for T22A reads -0.2 ± 0.054; that for T22N, 0.09 ± 0.13; that for T22C, -0.265 ± 0.14.
Consider T22Y, for which the abundance fitness was -0.844 ± 0.22.
The figure for R1L is -0.47 ± 0.1.
The result for R1G reads -0.238 ± 0.057; that for R1D, -0.298 ± 0.19.
Regarding R1Q, the abundance fitness is -0.294 ± 0.22.
The result for D38S reads 0.005 ± 0.045; that for D38C, -0.047 ± 0.068.
With D38N, the abundance fitness was -0.017 ± 0.062.
The figure for D38R is 0.053 ± 0.054.
Take D38F: the abundance fitness was -0.127 ± 0.077.
The figure for D38K is -0.08 ± 0.091; for A7R it is -0.617 ± 0.067; for A7K it is -1.05 ± 0.18.
The figure for A7S is -0.631 ± 0.074; for A7G it is -0.328 ± 0.061; for A7V it is -0.454 ± 0.057.
With V31H, the abundance fitness was -0.709 ± 0.15.
V31P: the abundance fitness was -0.969 ± 0.19.
The figure for V31Q is -1.03 ± 0.34; for V31D it is -0.992 ± 0.32; for V31W it is -0.837 ± 0.11.
Consider V10N, for which the abundance fitness was -0.336 ± 0.24.
The figure for V10P is -1.05 ± 0.25.
As for V10R, the abundance fitness is -0.098 ± 0.057.
The figure for V10H is -0.158 ± 0.23; for V10W it is -0.236 ± 0.08; for V10I it is -0.021 ± 0.064.
The result for V10G reads -0.179 ± 0.049.
The result for V10F reads -0.465 ± 0.14; that for V41C, -0.013 ± 0.069.
In the case of V41Y, the abundance fitness is -0.154 ± 0.11.
The result for V41P reads -0.94 ± 0.2; that for V41Q, -0.949 ± 0.18.
For the variant V41T, the abundance fitness was -0.609 ± 0.15.
The figure for D62M is -0.181 ± 0.18; for D62T it is 0.028 ± 0.079.
The figure for D62Y is -0.17 ± 0.079.
Turning to D62F, the abundance fitness is -0.399 ± 0.11.
The result for D62E reads 0.114 ± 0.1; that for D62L, -0.151 ± 0.053; that for F52L, 0.104 ± 0.04.
The result for F52R reads -0.063 ± 0.044; that for F52N, -0.175 ± 0.093; that for F52S, -0.059 ± 0.058.
The figure for F52I is -0.152 ± 0.12; for F52W it is 0.033 ± 0.062.
Regarding F52K, the abundance fitness was 0.048 ± 0.072.
Regarding E55T, the abundance fitness is 0.026 ± 0.054.
The result for E55F reads -0.165 ± 0.058.
The result for E55D reads -0.057 ± 0.11; that for E55P, -0.123 ± 0.088; that for E55G, -0.132 ± 0.055.
As to E55W, the abundance fitness was -0.151 ± 0.056.
As to E55L, the abundance fitness was found to be 0.059 ± 0.04.
The result for G26N reads -0.195 ± 0.15.
The result for G26R reads -0.558 ± 0.07; that for G26D, -0.047 ± 0.087.
Consider G26M, for which the abundance fitness was -0.701 ± 0.11.
With G26Y, the abundance fitness is -0.564 ± 0.13.
With G26P, the abundance fitness was -0.776 ± 0.1.
The result for G26W reads -0.474 ± 0.11.
The figure for G26H is -0.389 ± 0.16; for G26L it is -0.741 ± 0.092.
The result for G16R reads -0.064 ± 0.053; that for G16S, 0.019 ± 0.055; that for G16A, 0.024 ± 0.066.
With G16P, the abundance fitness was -0.608 ± 0.2.
The result for W40A reads -0.3 ± 0.076; that for W40Y, 0.079 ± 0.098.
Turning to W40N, the abundance fitness is -0.33 ± 0.15.
The result for W40R reads 0.121 ± 0.042.
Take W40D: the abundance fitness came out at 0.028 ± 0.14.
Regarding W40L, the abundance fitness was -0.134 ± 0.048.
The figure for W40E is -0.196 ± 0.09; for A2T it is 0.184 ± 0.069; for A2K it is 0.169 ± 0.069.
A2Q: the abundance fitness stood at 0.007 ± 0.097.
The figure for A2Y is 0.389 ± 0.14; for A2D it is 0.153 ± 0.095.
On to A2N, for which the abundance fitness worked out at 0.147 ± 0.12.
Take A2F: the abundance fitness was found to be 0.144 ± 0.12.
N45I: the abundance fitness is -0.212 ± 0.14.
The figure for N45P is -0.301 ± 0.15; for N45W it is -1.16 ± 0.22.
As to N45Y, the abundance fitness was -0.377 ± 0.18.
The figure for N45R is -0.941 ± 0.12; for N45E it is -1.08 ± 0.37; for N45F it is -0.869 ± 0.17.
The result for N45C reads -0.994 ± 0.28; that for V53W, -1.03 ± 0.16; that for V53G, -0.624 ± 0.078.
